The text below walks through data of patent US20180153986A1 (BRIGHAM AND WOMEN S HOSPITAL, published 2018).

In this assay the target is T1, human CEACAM1 (carcinoembryonic antigen related cell adhesion molecule 1) (human, UniProt P13688 35-526, limits assumed).
T1 construct: also called hCEACAM1; BGP
T1 sequence: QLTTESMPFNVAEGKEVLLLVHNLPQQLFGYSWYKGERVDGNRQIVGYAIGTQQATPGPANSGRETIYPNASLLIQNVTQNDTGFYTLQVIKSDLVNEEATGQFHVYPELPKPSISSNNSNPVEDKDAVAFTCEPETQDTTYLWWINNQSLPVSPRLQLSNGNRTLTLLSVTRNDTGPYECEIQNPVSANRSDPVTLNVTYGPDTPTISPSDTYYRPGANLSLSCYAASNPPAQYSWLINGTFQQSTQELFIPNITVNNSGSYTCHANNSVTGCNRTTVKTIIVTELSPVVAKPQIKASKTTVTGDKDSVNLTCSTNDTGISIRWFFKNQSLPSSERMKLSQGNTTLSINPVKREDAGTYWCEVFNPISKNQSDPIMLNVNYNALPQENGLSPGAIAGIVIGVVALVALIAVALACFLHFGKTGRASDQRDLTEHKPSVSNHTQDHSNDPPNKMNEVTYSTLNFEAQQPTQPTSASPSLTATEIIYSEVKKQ
In words: method not described ('as demonstrated herein'); support is structural prediction and co-expression.

B1: human TIM-1 (T-cell immunoglobulin and mucin domain-containing protein 1) (receptor)
chain: SVKVGGEAGPSVTLPCHYSGAVTSMCWNRGSCSLFTCQNGIVWTNGTHVTYRKDTRYKLLGDLSRRDVSLTIENTAVSDSGVYCCRVEHRGWFNDMKITVSLEIVPPKVTTTPIVTTVPTVTTVRTSTTVPTTTTVPTTTVPTTMSIPTTTTVLTTMTVSTTTSVPTTTSIPTTTSVPVTTTVSTFVPPMPLPRQNHEPVATSPSSPQPAETHPTTLQGAIRREPTSSPLYSYTTDGNDTVTESSDGLWNNNQTQLFLEHSLLTANTTKGIYAGVCISVLVLLALLGVIIAKKYFFKKEVQQLSVSFSSLQIKALQNAVEKEVQAEDNIYIENSLYATD
notes: also called HAVCR; HAVCR-1
In the case of B1, the binding result is listed as “binds”.
